Consider 16 sequences from the nanobody polyreactivity screen of Harvey et al. (2022).

The data set is described as follows: yeast display, Sf9 membrane polyspecificity reagent, FACS + sequencing; frameworks hold sequencing errors. In short, it runs like this: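 Galactose-induced (36–48 hours) yeast carrying a synthetic nanobody display library were exposed to 10% biotinylated, detergent-solubilized Sf9 membrane reagent at 4 °C for 1 hour. FACS followed streptavidin microbead enrichment, using low and high (top ~1%) gates for expression (anti-HA) and reagent binding (streptavidin). Colony PCR, MiSeq 2 × 250 sequencing and CDR-length filtering followed. Labels for polyreactivity reflect the gate of origin.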
Take “QVQLVESGGGLVQAGGSLRLSCAASGFIFTKYTMGWYRQAPGKERELVAAIRSDGVRTYYADSVKGRFTISRDNAKNTVYLQMNSLKPEDTAVYYCNRVSAVRIGAGDYWGQGTQVTVSS”: the “polyreactivity (PSR sort gate)” value is given as “high polyreactivity”.
Take “QVQLVESGGGLVQAGGSLRLSCAASGFIFTKYTMGWYRQAPGKERELVAAITGRGTSTYADSVKGRFTISRDNAKNTVYLPMNSLIPEDTAVYYCAAVGWFAVFLFSDINGYYLGQGTQVTVSS”: the “polyreactivity (PSR sort gate)” value is listed as “low polyreactivity”.
“QVQLVESGGGLVQAGGSLRLSCAASGFIFTRNAMAWYRQAPGKEREMVAGISVRGGATYYADSVKGRFTLSRDNAKNSFYLQMNSLKPEDTAVYYCAARYWRGPRYDYWGQGTKVTVSS”: the “polyreactivity (PSR sort gate)” value was “high polyreactivity”.
The entry for “QVQLVESGGGLVQAGGSLRLSCAASGFIFTRNRMGWYRHAPGKETELVAAISSGGRTYYADSVKGRFTISRDNAMNTVYLQMNSLIPEDTAVYYCNAGNRGVYRYDYWGQGTQVNVSS” is “high polyreactivity”; for “QVQLVESGGGLVQAGGSLRLSCAASGFIFTRYAMGGYRHAPGKERELVAAISWSGGRTYYADSVKGRFTISRDNANNTVYLQMNSLKPEDTAVYYCAARWVRIRFDYWGQGTQVAVSS” it is “high polyreactivity”; for “QVQLVESGGGLVQAGGSLRLSCAASGFIFTRYAMGWYRQAPGKERELVAAISWSGGSTYYADSVKGRFTISRDNAKNTVYLQMNSLKPEDTAVYYCAADGSDSYDYWGQGTQVTVSS” it is “low polyreactivity”.
The entry for “QVQLVESGGGLVQAGGSLRLSCAASGFIFTVNAMGRYRQAPGKERELVAAITQSGGNRSYADSVKGRFTISSDKAKNTVYLQMNSLKPEDTAVYYCNASSDTSRYGVSTYYYWGQGTQVTVSS” is “low polyreactivity”; for “QVQLVESGGGLVQAGGSLRLSCAASGFIFVDYDMVWYRQAPGKERELVAAISARGGSTNYADSVKGRFTISRDNAKNTVYLQMNSLKPEDTAVYYCAADTPVWSGYWYDYWGQGTQVTVSS” it is “low polyreactivity”; for “QVQLVESGGGLVQAGGSLRLSCAASGFIFVGNDMGWYRQAPGKERELVAAISSGGTTNYADSVKGRFTISRDNAKNTVYLQMNSLIPEDTAVYYCAADYDYRQGYDSVHLDYWGQGTQVTVSS” it is “low polyreactivity”.
The entry for “QVQLVESGGGLVQAGGSLRLSCAASGFIFVGYAMGWYRQAPGKERELVAAISWDGGSTDYADSVKGRFTISRDNAKNTVYLQMNSLKPEDTAVYYCAASYQYWGFWYEYWGQGTQVTVSS” is “high polyreactivity”; for “QVQLVESGGGLVQAGGSLRLSCAASGFIFVKYDMGWYRQAHGKERELVAAITTSGTGTFYADSVKGRFTISRDNAKNTVDLQMNSLKPEDTAVYYCNSLGHPGDDWGQGTQVTVSS” it is “low polyreactivity”.
On to “QVQLVESGGGLVQAGGSLRLSCAASGFIFVNYAMGWYRQAPGKERELVAAISRNGGRTYYADSVKGRFTISRDNAKNTVYCQMNSLTPEDTAVYYCTAELSGKRDYWGQGTQVTVSS”, for which the “polyreactivity (PSR sort gate)” value is reported as “high polyreactivity”.
The entry for “QVQLVESGGGLVQAGGSLRLSCAASGFIFVNYMGWYRQAPGKERELVAAISRGGSTNYADSVKGRFTISRDNAKNNVFLQMNSLKPEDTAVYYCAAETWYSGYTYDYWGQGTQVTVSS” is “low polyreactivity”; for “QVQLVESGGGLVQAGGSLRLSCAASGFIFVPNAMGWYRQAPGKERELVAAITWSGSSTYYADSVKGRFTISRDNAKNTVYLQINSLKPEDTAVYYCAADYPVWDEFYDSYEYWGQGTQVTVSS” it is “high polyreactivity”.
The entry for “QVQLVESGGGLVQAGGSLRLSCAASGFIFVPYAMGWDRQAPGNERELVAAITWSGAATYYADSVQGRFTISRDNAKNTVYLQLNSLKPEDTAVYYCAAENWLPQTGGYYWYDSWGQGTQVTVSS” is “high polyreactivity”.
The entry for “QVQLVESGGGLVQAGGSLRLSCAASGFIFVPYAMGWYRQAPGKERELVAAITWSGASTYYADSVKGRFTISRDNAKNTVYLQMNRLKPEDTAVYYCAAENWLPQTGGYYWYDYWGQGTQVTVSS” is “high polyreactivity”.
